Test results reported in patent US20210122822A1 (FORTY SEVEN, published 2021).
Each block holds one binder with its values, some of them ahead of it.

Legend:
[1] = biological target: T1, human c-Kit-Fc fusion protein (human, UniProt P10721 26-520, limits assumed); assay: ELISA, coated human c-Kit-Fc, FIG. 3D, against AMG191 (members named at paragraph 118)
T1 construct: not shown: Fc part of the fusion protein
Procedure: (§1) Antigen binding activity measurement by ELISA. 96-well plates (Nunc, Roskilde, Denmark) were coated with 1 ug/ml human c-Kit-Fc fusion protein in phosphate-buffered saline (PBS) for 16 hr at 4° C. After blocking for 1 hr with 0.4% BSA in PBS at room temperature, anti-c-Kit antibodies were added in 1/3 sequential dilutions, and incubated for 1 hr at room temperature. Plates were subsequently washed three times and incubated with HRP-conjugated goat anti-human kappa-specific antibody for 1 hr at room temperature. After washing, plates were developed with TMB. The reaction was stopped with 2M […], and OD was measured at 450 nm.

[2] = biological target: T1, human c-Kit-Fc fusion protein; assay: ELISA, coated human c-Kit-Fc
Procedure: as §1

[3] = biological target: T1, human c-Kit-Fc fusion protein; assay: ELISA, coated human c-Kit-Fc, FIG. 3C, against AMG191
Procedure: as §1

[4] = biological target: T1, human c-Kit-Fc fusion protein; assay: ELISA, coated human c-Kit-Fc, against AMG191
Procedure: as §1

[5] = biological target: T1, human c-Kit-Fc fusion protein; assay: ELISA, coated human c-Kit-Fc; AMG191 is the reference
Procedure: as §1

[6] = biological target: T1, human c-Kit-Fc fusion protein; assay: ELISA, coated human c-Kit-Fc, FIG. 2C (members named at paragraph 117)
Procedure: as §1

[7] = biological target: T1, human c-Kit-Fc fusion protein; assay: ELISA, coated human c-Kit-Fc, FIG. 2D (members named at paragraph 117)
Procedure: as §1

T1 sequence (P10721 26-520 limits assumed): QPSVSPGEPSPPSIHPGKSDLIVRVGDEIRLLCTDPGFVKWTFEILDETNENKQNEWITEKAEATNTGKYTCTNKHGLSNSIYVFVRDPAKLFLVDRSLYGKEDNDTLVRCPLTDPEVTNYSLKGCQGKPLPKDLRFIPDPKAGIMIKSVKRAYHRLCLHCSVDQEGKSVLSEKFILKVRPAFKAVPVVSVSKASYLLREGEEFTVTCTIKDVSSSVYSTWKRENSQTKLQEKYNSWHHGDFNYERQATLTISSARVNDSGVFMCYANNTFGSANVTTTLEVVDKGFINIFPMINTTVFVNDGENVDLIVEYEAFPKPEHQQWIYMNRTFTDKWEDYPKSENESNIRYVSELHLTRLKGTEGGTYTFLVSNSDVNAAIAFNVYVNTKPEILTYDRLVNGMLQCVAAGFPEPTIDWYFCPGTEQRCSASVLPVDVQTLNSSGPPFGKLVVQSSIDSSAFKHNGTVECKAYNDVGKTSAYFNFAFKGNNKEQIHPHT

binding result [5]: binds
B7: AMG191 (antibody, V domains shown)
VH: QVQLVQSGAEVKKPGASVKVSCKASGYTFTSYNMHWVRQAPGQGLEWMGVIYSGNGDTSYNQKFKGRVTITADKSTSTAYMELSSLRSEDTAVYYCARERDTRFGNWGQGTLVTVSS
VL: DIVMTQSPDSLAVSLGERATINCRASESVDIYGNSFMHWYQQKPGQPPKLLIYLASNLESGVPDRFSGSGSGTDFTLTISSLQAEDVAVYYCQQNNEDPYTFGGGTKVEIK
notes: Humanized form of HB-10716; constant region has an N to E mutation of position 297 (unglycosylated, silenced Fc); kappa light chain implied by the anti-human kappa detection

binding result [6]: binds
B8: AF112 (antibody, human IgG1, V domains shown)
VH: QVQLVQSGAEVKKPGASVKVSCKASGYTFTSYNMHWVRQAPGQGLEWMGVIYSGNGDTSYAQKFQGRVTITADKSTSTAYMELSSLRSEDTAVYYCARERDTRFGNWGQGTLVTVSS
VL: DIVMTQSPDSLAVSLGERATINCRASESVDIYGQSFMHWYQQKPGQPPKLLIYLASNLESGVPDRFSGSGSGTDFTLTISSLQAEDVAVYYCQQNNEDPYTFGGGTKVEIK

binding result [6]: binds
B9: AF12 (antibody, human IgG1, V domains shown)
VH: QVQLVQSGAEVKKPGASVKVSCKASGYTFTSYNMHWVRQAPGQGLEWMGVIYSGNGDTSYNQKFQGRVTITADKSTSTAYMELSSLRSEDTAVYYCARERDTRFGNWGQGTLVTVSS
VL: DIVMTQSPDSLAVSLGERATINCRASESVDIYGQSFMHWYQQKPGQPPKLLIYLASNLESGVPDRFSGSGSGTDFTLTISSLQAEDVAVYYCQQNNEDPYTFGGGTKVEIK

binding result [7]: binds
B10: AF-2-1 (antibody, V domains shown)
VH: QVQLVQSGAEVKKPGASVKVSCKASGYTFTSYNMHWVRQAPGQGLEWMGVIYSGQGDTSYNQKFKGRVTITADKSTSTAYMELSSLRSEDTAVYYCARERDTRFGNWGQGTLVTVSS
VL: DIVMTQSPDSLAVSLGERATINCRASESVDIYGQSFMHWYQQKPGQPPKLLIYLASNLESGVPDRFSGSGSGTDFTLTISSLQAEDVAVYYCQQNNEDPYTFGGGTKVEIK

binding result [7]: binds
B11: AF-3 (antibody, V domains shown)
VH: QVQLVQSGAEVKKPGASVKVSCKASGYTFTSYNMHWVRQAPGQGLEWMGVIYSGNGDTSYNQKFKGRVTITADKSTSTAYMELSSLRSEDTAVYYCARDRDTRFGNWGQGTLVTVSS
VL: DIVMTQSPDSLAVSLGERATINCRASESVDIYGQSFMHWYQQKPGQPPKLLIYLASNLESGVPDRFSGSGSGTDFTLTISSLQAEDVAVYYCQQNNEDPYTFGGGTKVEIK

The next lines start with the binder.

B1: NF11 (antibody, V domains shown)
VH: EVQLLESGGGLVQPGGSLRLSCAASGFTFTSYNMHWVRQAPGKGLEWVGVIYSGNGDTSYAQKFKGRFTISADKSKNTAYLQMNSLRAEDTAVYYCARERDTRFGNWGQGTLVTVSS
VL: DIVMTQSPLSLPVTPGEPASISCRASESVDIYGQSFMHWYLQKPGQSPQLLIYLASNLESGVPDRFSGSGSGTDFTLKISRVEAEDVGVYYCQQNNEDPYTFGGGTKVEIK
binding result [1]: binds

B2: NF12 (antibody, V domains shown)
VH: EVQLLESGGGLVQPGGSLRLSCAASGFTFTSYNMHWVRQAPGKGLEWVGVIYSGNGDTSYNQKFQGRFTISADKSKNTAYLQMNSLRAEDTAVYYCARERDTRFGNWGQGTLVTVSS
VL: DIVMTQSPLSLPVTPGEPASISCRASESVDIYGQSFMHWYLQKPGQSPQLLIYLASNLESGVPDRFSGSGSGTDFTLKISRVEAEDVGVYYCQQNNEDPYTFGGGTKVEIK
binding result [2]: binds

B3: NF (antibody, V domains shown)
VH: EVQLLESGGGLVQPGGSLRLSCAASGFTFTSYNMHWVRQAPGKGLEWVGVIYSGNGDTSYNQKFKGRFTISADKSKNTAYLQMNSLRAEDTAVYYCARERDTRFGNWGQGTLVTVSS
VL: DIVMTQSPLSLPVTPGEPASISCRASESVDIYGNSFMHWYLQKPGQSPQLLIYLASNLESGVPDRFSGSGSGTDFTLKISRVEAEDVGVYYCQQNNEDPYTFGGGTKVEIK
notes: also called antibody with the new frameworks (NF)
binding result [3]: binds

B4: NF112 (antibody, human IgG1, V domains shown)
VH: EVQLLESGGGLVQPGGSLRLSCAASGFTFTSYNMHWVRQAPGKGLEWVGVIYSGNGDTSYAQKFQGRFTISADKSKNTAYLQMNSLRAEDTAVYYCARERDTRFGNWGQGTLVTVSS
VL: DIVMTQSPLSLPVTPGEPASISCRASESVDIYGQSFMHWYLQKPGQSPQLLIYLASNLESGVPDRFSGSGSGTDFTLKISRVEAEDVGVYYCQQNNEDPYTFGGGTKVEIK
binding result [2]: binds

B5: AF11 (antibody, V domains shown)
VH: QVQLVQSGAEVKKPGASVKVSCKASGYTFTSYNMHWVRQAPGQGLEWMGVIYSGNGDTSYAQKFKGRVTITADKSTSTAYMELSSLRSEDTAVYYCARERDTRFGNWGQGTLVTVSS
VL: DIVMTQSPDSLAVSLGERATINCRASESVDIYGQSFMHWYQQKPGQPPKLLIYLASNLESGVPDRFSGSGSGTDFTLTISSLQAEDVAVYYCQQNNEDPYTFGGGTKVEIK
binding result [4]: binds

B6: HF112 (antibody, human IgG1, V domains shown)
VH: QVQLVQSGAEVKKPGASVKVSCKASGYTFTSYNMHWVRQAPGQGLEWMGVIYSGNGDTSYAQKFQGRVTITADKSTSTAYMELSSLRSEDTAVYYCARERDTRFGNWGQGTLVTVSS
VL: DIVMTQSPLSLPVTPGEPASISCRASESVDIYGQSFMHWYLQKPGQSPQLLIYLASNLESGVPDRFSGSGSGTDFTLKISRVEAEDVGVYYCQQNNEDPYTFGGGTKVEIK
binding result [2]: binds
